Publication PMC6190850, “The RNA-Recognition Motifs of TAR DNA-Binding Protein 43 May Play a Role in the Aberrant Self-Assembly of the Protein”

How the values were obtained:
Details in all cases: protein: recombinant; tags: 6xHis-SUMO removed by TEV; single strand
[1] = biological target: TDP-43 RRM1 (with 15-aa C-terminal linker) (UniProt Q13148 102-191); assay: BLI; BLI (Octet RED), 10 mM potassium phosphate pH 7.2, 150 mM KCl, 0.05% Tween, 25 C; RNA on streptavidin sensors, protein 1 nM-15 uM
Chain of TDP-43 RRM1 (with 15-aa C-terminal linker) (Q13148 102-191): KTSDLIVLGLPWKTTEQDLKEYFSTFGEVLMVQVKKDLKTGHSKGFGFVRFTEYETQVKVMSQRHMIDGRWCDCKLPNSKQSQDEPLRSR

TDP-43 RRM1-2 = TDP-43 RRM1-2 (UniProt Q13148 102-269); assay: as above
Chain of TDP-43 RRM1-2 (Q13148 102-269): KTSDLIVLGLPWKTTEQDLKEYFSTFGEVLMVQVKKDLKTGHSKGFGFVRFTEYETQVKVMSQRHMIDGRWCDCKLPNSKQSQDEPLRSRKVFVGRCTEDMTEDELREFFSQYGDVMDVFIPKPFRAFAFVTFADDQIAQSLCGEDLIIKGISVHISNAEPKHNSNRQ

TDP-43 RRM2 = TDP-43 RRM2 (UniProt Q13148 192-269); assay: BLI; no Kd could be determined, protein up to 15 uM; BLI (Octet RED), 10 mM potassium phosphate pH 7.2, 150 mM KCl, 0.05% Tween, 25 C; RNA on streptavidin sensors, protein 1 nM-15 uM
Chain of TDP-43 RRM2 (Q13148 192-269): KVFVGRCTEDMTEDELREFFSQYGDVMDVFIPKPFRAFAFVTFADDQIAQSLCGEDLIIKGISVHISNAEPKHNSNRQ

Row | Binder | Kd [1] | Kd (TDP-43 RRM1-2) | binding result (TDP-43 RRM2)
1 | GUGUGAAUGAAU (ssRNA) [AUG12] | 480 ± 90 nM | 3.9 nM | 
2 | AUUCAUUCACAC (ssRNA) [NegAUG12] | 2550 ± 480 nM | 2600 ± 600 nM | no binding
